Assays:
[1] = molecular target: soluble recombinant human IGF-1R hetero-tetramere with C-terminal 10-His tag (R&D Systems 305-GR) (human) (UniProt P08069); experiment: SPR Biacore X100, Ln(2)/koff, mean of 4
[2] = molecular target: monkey IGF-1R (on COS-7 cells) (African green monkey); experiment: FACS titration, Cos-7
[3] = molecular target: monkey IGF-1R (on COS-7 cells) (African green monkey); experiment: FACS on COS-7 cells, 4°C; inset table, axis log [M] (Table 14b prints it rounded as 5.1E-10)
[4] = molecular target: human IGF-1R (native, on cells) (human) (UniProt P08069); experiment: cell-based or functional assay
[5] = molecular target: soluble recombinant human IGF-1R hetero-tetramere with C-terminal 10-His tag (R&D Systems 305-GR) (human) (UniProt P08069); experiment: SPR Biacore X100, His-captured h-IGF-1R ~600 RU, mean of 4
[6] = molecular target: human IGF-1R (native, on cells) (human) (UniProt P08069); experiment: FACS titration, MCF-7
[7] = molecular target: human IGF-1R (native, on cells) (human) (UniProt P08069); experiment: FACS on MCF-7 cells, 4°C; inset table, axis log [M] (Table 14b prints it rounded as 7.09E-10)

B1: hz208F2 H026/L024 (antibody, from a related filing, V domains shown)
VH: QVQLVQSGAEVKKPGASVKMSCKASGYTFTSYYIYWVKQAPGQGLEWLGWIWPGDGSTKYNEKFQGRVTLTADKSSNTAYMFLSSLRSEDTAVYFCASPMITPNYAMDYWGQGTLVTVSS
VL: DIQMTQSPSSLSASVGDRVTISCRASQDISKYLNWYQQKPGKAPKLLIYYTSRLHSGVPSRFSGRGSGTDYSLTISNLQPEDFATYFCQQGSTLPYTFGGGTKVEIKR
**Q.** With B1 as the binder, how does the half-life of the complex [1] read?
**A.** The half-life of the complex was 2 to 3 h.

**Q.** What about the EC50 [2] of the same binder?
**A.** The EC50 was 0.51 nM.

**Q.** And the EC50 [3]?
**A.** Its EC50 is 0.511 nM.

**Q.** And the % internalization [4]?
**A.** The % internalization was 87%.

**Q.** What about the ΔMFI (MCF-7, 10 µg/ml, 4 h) [4] of the same binder?
**A.** Its ΔMFI (MCF-7, 10 µg/ml, 4 h) is 344 MFI.

**Q.** What about the Kd [5] of the same binder?
**A.** The Kd was 0.06 nM.

**Q.** What about the EC50 [6] of the same binder?
**A.** The EC50 was 0.709 nM.

**Q.** And the EC50 [7]?
**A.** Its EC50 is 0.71 nM.
